This is an account of results in patent publication US20250353906A1 (FLAGSHIP PIONEERING INNOVATIONS VII, published 2025).

Test [1] has as its target T1, recombinant His-tagged human IL-10Ra (Creative Biomart) (human, UniProt Q13651 22-235).
T1 construct: His tag; also called IL-10 receptor alpha
T1 sequence (looked up): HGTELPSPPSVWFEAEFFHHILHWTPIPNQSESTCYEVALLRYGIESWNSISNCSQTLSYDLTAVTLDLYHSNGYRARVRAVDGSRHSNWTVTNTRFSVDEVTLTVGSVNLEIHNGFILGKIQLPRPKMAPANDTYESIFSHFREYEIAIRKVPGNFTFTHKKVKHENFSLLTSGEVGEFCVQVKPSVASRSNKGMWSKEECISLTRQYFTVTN
Kind of test: ELISA on coated His-tagged human IL-10Ra, serial dilution from 30 µg/mL. The protocol:
To test the binding of the IL-10/anti-DSG1 ANDbodies to IL-10 receptor alpha (IL-10Ra) by ELISA, recombinant His-tagged human IL-10Ra (Creative Biomart) was coated on NUNC-IMMUNO™ MAXISORP™ ELISA plates at 1 μg/mL concentration overnight. The next day, coated antigen was removed and the wells were blocked with 1% IgG-free BSA followed by incubation with 11 three-fold serially diluted anti-IL-10/anti-DSG1 ANDbodies (as provided above) with a starting concentration of 30 μg/mL. Bound antibody was detected with peroxidase-conjugated anti-human IgG antibodies with TMB and acid stop reagents.

Test [2] deals with T2, DSG1 stably expressed on HEK-BLUE IL-10 cells (HEKBLUE IL-10/DSG1) (human, UniProt Q02413 50-1049).
T2 sequence (looked up): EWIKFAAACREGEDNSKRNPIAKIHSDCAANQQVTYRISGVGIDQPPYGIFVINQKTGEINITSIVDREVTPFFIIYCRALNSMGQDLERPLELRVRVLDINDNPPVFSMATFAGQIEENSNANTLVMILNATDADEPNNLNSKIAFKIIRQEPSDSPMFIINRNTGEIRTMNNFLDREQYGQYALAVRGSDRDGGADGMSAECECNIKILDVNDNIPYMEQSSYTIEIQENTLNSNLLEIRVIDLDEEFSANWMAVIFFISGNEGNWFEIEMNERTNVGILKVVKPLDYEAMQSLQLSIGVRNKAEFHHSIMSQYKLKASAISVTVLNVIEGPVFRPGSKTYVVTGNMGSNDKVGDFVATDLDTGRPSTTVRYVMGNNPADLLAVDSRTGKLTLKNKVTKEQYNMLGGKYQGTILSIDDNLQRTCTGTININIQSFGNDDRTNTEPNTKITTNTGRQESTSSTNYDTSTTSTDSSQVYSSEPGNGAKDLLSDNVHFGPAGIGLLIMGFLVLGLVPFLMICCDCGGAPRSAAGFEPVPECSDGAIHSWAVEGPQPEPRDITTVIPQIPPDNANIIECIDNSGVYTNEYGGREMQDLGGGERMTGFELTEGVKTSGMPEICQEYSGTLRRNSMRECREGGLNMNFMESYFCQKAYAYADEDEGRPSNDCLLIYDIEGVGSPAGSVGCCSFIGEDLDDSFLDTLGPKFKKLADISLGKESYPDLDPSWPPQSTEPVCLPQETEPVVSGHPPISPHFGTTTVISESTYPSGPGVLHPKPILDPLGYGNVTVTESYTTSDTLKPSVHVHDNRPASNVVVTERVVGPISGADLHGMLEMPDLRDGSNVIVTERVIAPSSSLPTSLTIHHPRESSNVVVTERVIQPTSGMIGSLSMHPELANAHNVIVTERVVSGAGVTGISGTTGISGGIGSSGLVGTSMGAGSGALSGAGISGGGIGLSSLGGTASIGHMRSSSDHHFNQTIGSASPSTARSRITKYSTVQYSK
Kind of test: cell-based or functional assay.

The target of test [3] is T3, recombinant His-tagged murine RAGE protein (ab276858 from Abcam) (mouse, UniProt Q62151 23-340, limits assumed).
T3 construct: His tag; also called murine RAGE antigen
T3 sequence (Q62151 23-340 limits assumed): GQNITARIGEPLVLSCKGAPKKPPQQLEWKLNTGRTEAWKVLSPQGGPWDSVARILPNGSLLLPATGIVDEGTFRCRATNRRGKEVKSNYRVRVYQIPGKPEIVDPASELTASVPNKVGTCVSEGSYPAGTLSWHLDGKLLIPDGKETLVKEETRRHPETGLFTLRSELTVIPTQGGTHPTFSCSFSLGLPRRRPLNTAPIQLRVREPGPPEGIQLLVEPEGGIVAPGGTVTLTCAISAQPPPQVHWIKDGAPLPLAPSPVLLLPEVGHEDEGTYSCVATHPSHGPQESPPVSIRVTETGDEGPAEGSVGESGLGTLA
Kind of test: BLI, ANDbody on anti-human IgG Fc biosensors, murine RAGE at 150 nM then murine Notch2 NRR at 150 nM. The protocol: To test simultaneous dual antigen binding of the Notch2/RAGE ANDbodies by BLI, PRO051, PRO052 and PRO053, along with monovalent parental antibody controls were immobilized on anti-human IgG Fc biosensors and dipped into the recombinant His-tagged murine RAGE protein at 150 nM, followed by a second association step into wells containing recombinant murine Notch2 NRR at 150 nM to measure dual antigen binding. The dissociation rate was then measured by dipping the biosensors into buffer.

B1: IL-10 Fc (Creative Biomart IL10-326H) (Fc fusion, human, UniProt P22301 19-178, looked up)
chain: SPGQGTQSENSCTHFPGNLPNMLRDLRDAFSRVKTFFQMKDQLDNLLLKESLLEDFKGYLGCQALSEMIQFYLEEVMPQAENQDPDIKAHVNSLGENLKTLRLRLRRCHRFLPCENKSKAVEQVKNAFNKLQEKGIYKAMSEFDIFINYIEAYMTMKIRN
notes: Bought reagent; also called positive control IL-10 Fc; hIL-10 Fc fusion; not shown: human Fc domain
Turning to B1, the binding result in test [1] is “binds”.

B2: PRO058 (other)
heavy: EVQLVESGGGLVQPGRSLRLSCAASGFTFDDYAMHWVRQAPGKGLEWVSGISWNSGSIDYADSVKGRFTISRDNAKNSLYLQMNSLRVEDTALYYCAKDGSRVFGVGGGFDFWGQGTMVTVSSASTKGPSVFPLAPSSKSTSGGTAALGCLVKDYFPEPVTVSWNSGALTSGVHTFPAVLQSSGLYSLSSVVTVPSSSLGTQTYICNVNHKPSNTKVDKKVEPKSCDKTHTCPPCPAPEAAGGPSVFLFPPKPKDTLMISRTPEVTCVVVDVSHEDPEVKFNWYVDGVEVHNAKTKPREEQYNSTYRVVSVLTVLHQDWLNGKEYKCKVSNKALGAPIEKTISKAKGQPREPQVYTLPPSRDELTKNQVKLTCLVKGFYPSDIAVEWESNGQPENNYKTTPPVLDSDGSFFLYSSLTVDKSRWQQGNVFSCSVMHEALHNHYTQKSLSLSPG
light: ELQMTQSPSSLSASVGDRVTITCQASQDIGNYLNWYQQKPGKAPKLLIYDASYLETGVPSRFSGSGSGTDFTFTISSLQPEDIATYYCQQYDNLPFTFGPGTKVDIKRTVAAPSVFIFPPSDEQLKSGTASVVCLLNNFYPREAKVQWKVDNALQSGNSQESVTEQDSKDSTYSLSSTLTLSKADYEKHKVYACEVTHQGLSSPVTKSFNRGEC
chain: SPGQGTQSENSCTHFPGNLPNMLRDLRDAFSRVKTFFQMKDQLDNLLLKESLLEDFKGYLGCQALSEMIQFYLEEVMPQAENQDPDIKAHVNSLGENLKTLRLRLRRCHRFLPCENGGGSGGKSKAVEQVKNAFNKLQEKGIYKAMSEFDIFINYIEAYMTMKIRNGGGGSGGGGSDKTHTCPPCPAPEAAGGPSVFLFPPKPKDTLMISRTPEVTCVVVDVSHEDPEVKFNWYVDGVEVHNAKTKPREEQYNSTYRVVSVLTVLHQDWLNGKEYKCKVSNKALGAPIEKTISKAKGQPREPQVYTLPPSRDELTKNQVSLTCLVSGFYPSDIAVEWESNGQPENNYKTTPPVLDSDGSFKLYSKLTVDKSRWQQGNVFSCSVMHEALHNRFTQKSLSLSPG
Consider B2, for which the “increase in potency of IL-10 signaling (SEAP, HEK-BLUE IL-10 cells) when DSG1 was expressed on the target cells” value in test [2] was around 15 fold.

B3: PRO052 (bispecific antibody)
heavy 1: not shown
light 1: DIQMTQSPSSLSASVGDRVTITCRASQSNRRFLAWYQQKPGKAPKLLIYGASSRASGVPSRFSGSGSGTDFTLTISSLQPEDFATYYCQQYYISPLTFGQGTKVEIKRTVAAPSVFIFPPSDEQLKSGTASVVCLLNNFYPREAKVQWKVDNALQSGNSQESVTEQDSKDSTYSLSSTLTLSKADYEKHKVYACEVTHQGLSSPVTKSFNRGEC
heavy 2: not shown
light 2: DIQMTQSPSSLSASVGDRVTITCRASQDVGIYVNWFQQKPGKAPRRLIYRATNLADGVPSRFSGSRSGTDFTLTISSLQPEDFATYYCLEFDEHPLTFGGGTKVEIKRTVAAPSVFIFPPSDEQLKSGTASVVCLLNNFYPREAKVQWKVDNALQSGNSQESVTEQDSKDSTYSLSSTLTLSKADYEKHKVYACEVTHQGLSSPVTKSFNRGEC
notes: Made by controlled Fab arm exchange from PRO035 (K409R) and PRO002 (F405L); also called Notch2/RAGE ANDbody PRO052; copies: 1 + 1 + 1 + 1
For B3, in test [3], the binding result is given as “binds”.

B4: PRO053 (bispecific antibody)
heavy 1: not shown
light 1: DIQMTQSPSSLSASVGDRVTITCRASQSVRSFLAWYQQKPGKAPKLLIYRASIRASGVPSRFSGSGSGTDFTLTISSLQPEDFATYYCQQYYISPWTFGQGTKVEIKRTVAAPSVFIFPPSDEQLKSGTASVVCLLNNFYPREAKVQWKVDNALQSGNSQESVTEQDSKDSTYSLSSTLTLSKADYEKHKVYACEVTHQGLSSPVTKSFNRGEC
heavy 2: not shown
light 2: DIQMTQSPSSLSASVGDRVTITCRASQDVGIYVNWFQQKPGKAPRRLIYRATNLADGVPSRFSGSRSGTDFTLTISSLQPEDFATYYCLEFDEHPLTFGGGTKVEIKRTVAAPSVFIFPPSDEQLKSGTASVVCLLNNFYPREAKVQWKVDNALQSGNSQESVTEQDSKDSTYSLSSTLTLSKADYEKHKVYACEVTHQGLSSPVTKSFNRGEC
notes: Made by controlled Fab arm exchange from PRO036 (K409R) and PRO002 (F405L); also called Notch2/RAGE ANDbody PRO053; copies: 1 + 1 + 1 + 1
Turning to B4, in test [3], the binding result is reported as “binds”.

B5: PRO051 (bispecific antibody)
heavy 1: not shown
light 1: not shown
heavy 2: not shown
light 2: DIQMTQSPSSLSASVGDRVTITCRASQDVGIYVNWFQQKPGKAPRRLIYRATNLADGVPSRFSGSRSGTDFTLTISSLQPEDFATYYCLEFDEHPLTFGGGTKVEIKRTVAAPSVFIFPPSDEQLKSGTASVVCLLNNFYPREAKVQWKVDNALQSGNSQESVTEQDSKDSTYSLSSTLTLSKADYEKHKVYACEVTHQGLSSPVTKSFNRGEC
notes: Made by controlled Fab arm exchange from PRO034 (K409R) and PRO002 (F405L); Signal peptides left out as for the parents; also called Notch2/RAGE ANDbody PRO051; RAGE-targeting ANDbody; copies: 1 + 1 + 1 + 1
B5: the binding result in test [3] is “binds”.
